Reference: patent publication US6369237

Molecular target: T1, MutY adenine DNA glycosylase (UniProt P17802)
T1 sequence: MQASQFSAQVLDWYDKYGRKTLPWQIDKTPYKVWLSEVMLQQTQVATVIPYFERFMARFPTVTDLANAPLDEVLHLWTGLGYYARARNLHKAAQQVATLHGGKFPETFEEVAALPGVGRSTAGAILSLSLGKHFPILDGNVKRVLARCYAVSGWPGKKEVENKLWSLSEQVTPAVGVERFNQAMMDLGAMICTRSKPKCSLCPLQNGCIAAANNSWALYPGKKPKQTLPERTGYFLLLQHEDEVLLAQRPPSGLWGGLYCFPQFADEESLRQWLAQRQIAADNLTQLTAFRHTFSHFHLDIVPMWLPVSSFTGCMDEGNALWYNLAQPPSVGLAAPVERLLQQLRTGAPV
Assay: EMSA
Settings: pyrrolidine residue lacking a base (inhibitor 1); at least 20 times higher than 2a

## pyrrolidine (inhibitor 1) abasic duplex
  Kd: 65 pM
